From the supplement of paper PMC9112550, “Optimization of the antimicrobial peptide Bac7 by deep mutational scanning” (BMC Biology, 2022)

System: Escherichia coli TOP10
Test: shrunken log2 fold change of peptide-encoding DNA abundance (4.5 h post-induction vs induction); higher = less antimicrobial activity (less host growth inhibition)
Conditions: time post-induction: 4.5 h; library: site-saturation at positions 5, 18, 19, 20
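Note: peptides expressed intracellularly from a pBAD plasmid library in pooled LB shake-flask culture, induced with 0.3% L-arabinose, DNA abundance read by NGS, three biological replicates, DESeq2 with apeglm shrinkage.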

Sequence	shrunken log2 fold change
RRIRARPPRLPRPRPRPYRSPRP	-0.51
RRIRARPPRLPRPRPRPYRYPRP	-0.274
RRIRARPPRLPRPRPRPYSHPRP	-0.171
RRIRARPPRLPRPRPRPYTDPRP	-0.785
RRIRARPPRLPRPRPRPYTIPRP	-0.236
RRIRARPPRLPRPRPRPYTKPRP	-0.156
RRIRARPPRLPRPRPRPYTRPRP	-0.124
RRIRARPPRLPRPRPRPYVHPRP	-0.728
RRIRARPPRLPRPRPRPYWEPRP	-0.312
RRIRARPPRLPRPRPRPYWGPRP	-0.43
RRIRARPPRLPRPRPRPYWMPRP	-0.275
RRIRARPPRLPRPRPRPYWPPRP	-0.00546
RRIRARPPRLPRPRPRPYWWPRP	-0.195
RRIRARPPRLPRPRPRPYWYPRP	-0.763
RRIRARPPRLPRPRPRPYYDPRP	-0.215
RRIRARPPRLPRPRPRPYYGPRP	-0.363
RRIRARPPRLPRPRPRPYYTPRP	-0.762
RRIRCRPPRLPRPRPRPACLPRP	-0.111
RRIRCRPPRLPRPRPRPACMPRP	-0.162
RRIRCRPPRLPRPRPRPAEPPRP	0.368

Sequence	shrunken log2 fold change
RRIRCRPPRLPRPRPRPAFFPRP	0.0268
RRIRCRPPRLPRPRPRPAFHPRP	-0.389
RRIRCRPPRLPRPRPRPAKFPRP	0.154
RRIRCRPPRLPRPRPRPAKKPRP	0.00097
RRIRCRPPRLPRPRPRPAKLPRP	0.0355
RRIRCRPPRLPRPRPRPAKSPRP	0.448
RRIRCRPPRLPRPRPRPAMGPRP	-0.0638
RRIRCRPPRLPRPRPRPAMIPRP	0.111
RRIRCRPPRLPRPRPRPANFPRP	-0.0131
RRIRCRPPRLPRPRPRPANNPRP	-0.409
RRIRCRPPRLPRPRPRPANPPRP	-0.057
RRIRCRPPRLPRPRPRPANTPRP	-0.265
RRIRCRPPRLPRPRPRPANWPRP	0.938
RRIRCRPPRLPRPRPRPAPLPRP	0.645
RRIRCRPPRLPRPRPRPAQDPRP	0.289
RRIRCRPPRLPRPRPRPAQHPRP	0.0537
RRIRCRPPRLPRPRPRPAQVPRP	-0.053
RRIRCRPPRLPRPRPRPARGPRP	0.297
RRIRCRPPRLPRPRPRPARPPRP	0.52
RRIRCRPPRLPRPRPRPARVPRP	0.453

Sequence	shrunken log2 fold change
RRIRCRPPRLPRPRPRPAVPPRP	0.073
RRIRCRPPRLPRPRPRPAVWPRP	0.617
RRIRCRPPRLPRPRPRPAWAPRP	0.108
RRIRCRPPRLPRPRPRPAYLPRP	-0.247
RRIRCRPPRLPRPRPRPCCRPRP	-0.106
RRIRCRPPRLPRPRPRPCECPRP	-0.0911
RRIRCRPPRLPRPRPRPCFHPRP	-0.597
RRIRCRPPRLPRPRPRPCFYPRP	-0.675
RRIRCRPPRLPRPRPRPCGAPRP	0.285
RRIRCRPPRLPRPRPRPCGMPRP	0.119
RRIRCRPPRLPRPRPRPCGTPRP	-0.306
RRIRCRPPRLPRPRPRPCHRPRP	-0.371
RRIRCRPPRLPRPRPRPCHWPRP	0.0101
RRIRCRPPRLPRPRPRPCIEPRP	-0.453
RRIRCRPPRLPRPRPRPCIMPRP	-0.336
RRIRCRPPRLPRPRPRPCIYPRP	-0.253
RRIRCRPPRLPRPRPRPCLGPRP	-0.224
RRIRCRPPRLPRPRPRPCPQPRP	-0.184
RRIRCRPPRLPRPRPRPCQHPRP	-0.161
RRIRCRPPRLPRPRPRPCQKPRP	-0.103
